No end group written: not given here. *: point of attachment. For = O=C*
Biological target: T1, C-terminally His-tagged N-formyl peptide receptor (UniProt P21462 1-350)
T1 construct: Expressed in transfected U937 cells; also called C-His FPR; His6 FPR
T1 sequence: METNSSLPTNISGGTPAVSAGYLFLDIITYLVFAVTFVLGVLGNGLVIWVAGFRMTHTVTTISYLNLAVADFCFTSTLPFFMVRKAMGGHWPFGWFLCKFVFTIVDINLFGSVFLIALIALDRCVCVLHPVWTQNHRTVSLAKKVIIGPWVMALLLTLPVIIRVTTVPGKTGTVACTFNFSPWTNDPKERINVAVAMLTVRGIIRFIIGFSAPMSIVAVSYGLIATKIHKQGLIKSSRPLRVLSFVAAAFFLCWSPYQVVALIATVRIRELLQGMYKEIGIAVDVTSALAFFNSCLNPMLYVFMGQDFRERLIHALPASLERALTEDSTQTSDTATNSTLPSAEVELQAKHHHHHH
Assay: flow cytometry; fMLFK-FITC on C-His FPR silica particles, optimal receptor input

fluorescent ligand signal to background ratio: ≥ 30 ratio (x:1)
B1: formyl-met-leu-phe-lys-FITC (peptide)
peptide: For-MLFK
modifications: also: FITC label, attachment site not given here
notes: Bought from Peninsula Laboratories; also called fMLFK-FITC; fluorescent formyl peptide

Source: patent US7018846 (SCIENCE AND TECHNOLOGY CORPORATION UNM, dated 2006)
